This data set in a line: yeast display, Sf9 membrane polyspecificity reagent, FACS + sequencing; frameworks hold sequencing errors. In short, it runs like this: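 Galactose-induced (36–48 hours) yeast carrying a synthetic nanobody display library were exposed to 10% biotinylated, detergent-solubilized Sf9 membrane reagent at 4 °C for 1 hour. FACS followed streptavidin microbead enrichment, using low and high (top ~1%) gates for expression (anti-HA) and reagent binding (streptavidin). Colony PCR, MiSeq 2 × 250 sequencing and CDR-length filtering followed. Labels for polyreactivity reflect the gate of origin.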
As to “QVQLVESGGGLVQAGSSLRLSCAASGRIFGYYAMGWYRQAPGKEREFVASITYSGGRTYYADSVKGRFTISRDNAKNTVYLQMNSLKPEDTAVYYCAKRQSFLGVSYDYWGQGTQVTVSS”, the “polyreactivity (PSR sort gate)” value is reported as “high polyreactivity”.

In the case of “HVQLLESGGGLVQAGGSLRLSCAASGFTFRSYAMGWYRQAPGKERELVAAISGSGGSTYYADSVKGRFTISRDNAKNTVYLQMNSLKPEVTAVYYCAARRSKNSALGGRVSIGDYWGQGTQVTVSS”, the “polyreactivity (PSR sort gate)” value was “high polyreactivity”.

Take “QVQIVESGGCLVQAGGSLRLSCAASGRIIVRNAMGWYRQARGTERELVADITNGGSTNYADSVKGRFTISRDNAKNTVFLEMNSLKPEDTAVDFCAADTLGVYDGDYWGQGTQVTVSS”: the “polyreactivity (PSR sort gate)” value is “low polyreactivity”.

For the sequence “QVQLVESGRGLVQAGGSLRLSCAPSGFTFYRNEMGWYRQAPGKERELVAAITFSGGITYYADSVKGRFTISRDNAKNTVYLQMNSLKPEDTAVYYGAAEGVGPARVYQGGEYNYWGQGTQVTVSS”, the “polyreactivity (PSR sort gate)” value was “low polyreactivity”.

With “QVQLVESGVGLVQAGGSLSLSSAASGSIFGYYAMGWYRQAPGKERELVAAITSDGDTYYADSVKGRFTISRDNAKNTVYLQINSLKPEDTAVYYCNATYGGPYYIQNDYWGQGTQVTVSS”, the “polyreactivity (PSR sort gate)” value was “low polyreactivity”.

Regarding “QVQLVESGGGLVQAGGSLRLSCAASGSTFYLYAMGWYRQAPGKEREFVARISASGGNTYYADSVKGRFTISRDNAKNTVYLQMNSLKPEDTAVYYCATRGSRYPYVAYNYWGQGTQVTVSS”, the “polyreactivity (PSR sort gate)” value is recorded as “high polyreactivity”.

Regarding “QVQLVESGGGLVQAGGSLRLSCAASGSIFWPYAMGWYRQAPGKERELVAAISSSTGRTYYADSVKGRFTLSRDNEKNTVYLQMNSLKPEDTAVDYCAADIGTTSYRYYYWGQGTQVTVSS”, the “polyreactivity (PSR sort gate)” value is listed as “high polyreactivity”.

Regarding “QVQLVESGGGLVQAGGSLRLSCAASGFTFGSYAMGWYRQAPGKERELVAGITFSTGTTSYADSVKGRFTISRDNAKTTVYLQMNSLKPEDTAVYYCAADLIPNEDYWGQGTQVTVSS”, the “polyreactivity (PSR sort gate)” value is reported as “low polyreactivity”.

As for “QVQLVESGGGLVQAGGSLRLSCAASGIIFSAYAMGWYRQAPGKERELVAAISSGGSTNYADSVKGRFTISRDNAKNTVYLQMNSLKPEDTAVYYCNAGERDVPNSYVAYREDYWGQGTQVTVSS”, the “polyreactivity (PSR sort gate)” value is “low polyreactivity”.

Regarding “QVQLVESGGGLVQAGGSLRLSCAASGRIFYVYAMGWYRAPGKERELVASISYIGGSTYYADSVKGRFTISRDNAKNTVYLQMNSLIPEDTAVYYCATDYYGYTVSFLVASWPDDYWGQGTQVTVSS”, the “polyreactivity (PSR sort gate)” value was “low polyreactivity”.

On to “QVPLVEKGGGLVQAGGSLRLSCAASGFTIGYYAMGWYRQAPGKERELVAASTWRGDTTYYADSVKGRFTISRDNAKNTVYLQMNSLKPEDTAVYYCAAEYEVYFDWSYYYWGQGTQVTVSS”, for which the “polyreactivity (PSR sort gate)” value is “high polyreactivity”.

As for “QVQLVESGGGLVQAGGSLRLSCAASGSIFYDNGMGWYRQAPGKERELVAAISRGGTTNYSDSVKGRFTISRDKAKNTVYLQMNSLKPEDTAVYYCNAETRFTYWGSWYDYWGQGTQVTVSS”, the “polyreactivity (PSR sort gate)” value was “low polyreactivity”.

As for “QVQLVESGGCIVQAGGSLRLSCAASGSIFTYNAMGWYRQAPGKERELVAAISASGGRTYYADSVKGRFTISRDNAKNTVYLQMNSLKPEDTAVYYCAARILVYGLRRFDYWGQGTQVNVSS”, the “polyreactivity (PSR sort gate)” value is “high polyreactivity”.

For “QVQLVESGGGIVQAGGSLRLTCAASGRILGSNSIAWYRHAPGKERELVAAITSTGSTDYADSVKGRFTISRDNAKKTVYLQMNSLKPEDTAVYYCAADTSPYQDDYWGQGTQVTVSS”, the “polyreactivity (PSR sort gate)” value is on record as “low polyreactivity”.

“QVQLVESGGGLVQAGGSLRLICAASGSIFRIYAMGWYRQAPGKEREFVAAISRRGGSTYYADSVKGRFTISRDNAKNTVYLQMNSLKPEDTAVYYCAASGGGSDAYWGQGTQVTVSS”: the “polyreactivity (PSR sort gate)” value is “high polyreactivity”.

With “QVQLVESGGGLVQAGGSLRLSCAASGFIFRSYAMGWYRQAPGKEREFVASISSRGGTTYYADSVKGRFTISRDNAKNTVYLQMNSLKTEDTAVYYCYAKRRYGPDKYDYWGQGTQVTVSS”, the “polyreactivity (PSR sort gate)” value is reported as “high polyreactivity”.

In the case of “QVQLVESGGGLVQAGGSLRLSCAASGRTFYSYTMGWYRQAPGKERELVAAINRGGSTYYADSVKWRFTISRDNAKNTVYLQMNSLKPEDTAVYYCNADNWVYLYDYWGQGTQVTVSS”, the “polyreactivity (PSR sort gate)” value is reported as “low polyreactivity”.

In the case of “QDQLVESGGGLVQAGGSLRLSCAASGSIFGWYAMGWYRQAPGKERELVAAITWSGGSTYYADSVKGRFTISRDNAKNTVYLQMNSRKPEDTAVYYCAATYYGYVGRYDYWGQGTQVTVSS”, the “polyreactivity (PSR sort gate)” value is reported as “high polyreactivity”.

As to “QVQLVESGGGLVQAGGSLRLSCAASGLTFWYYAMGWYRQAPGKERELVAAITSVGSTYYADSVKGRFTISRDNAKNTVYLQMNSLKPEDTAVYYCAAGVPPLYFRRGGDYWGQGTQGTVSS”, the “polyreactivity (PSR sort gate)” value is listed as “high polyreactivity”.

For “QVQLVESGGGLFQAGGSLRLICAASGRTFVVYAMGSYRQAPGKEWELVAAISWSGGRTYYADSVKGRFTMSRDNAKNTVYLQMNTLKPEDTAVYYCPAEVYLYKYVYYYWGQGTQVTVSS”, the “polyreactivity (PSR sort gate)” value was “high polyreactivity”.

As to “QVQLVESGGGLVQAGGSLRLSCAASGSTFTNNGMGWYRQAPGKERELVATISWDGDSTYYADSVKGRFTISRDNAKNSVYLQMNSLKPEDTAVYDCAADYRLHYSYPYEVVQYEYWGQGTQVTVSS”, the “polyreactivity (PSR sort gate)” value was “low polyreactivity”.

With “QVQLVESGGGLVQAGGSLRLSCAASGITFGRNTMGWYRQAPGKERELVAAIDSGRNTYADSVKGRFTISRDNAKNPVYLQMNSLKPEYTAVYYCNADKSNFVRGYYWGQGTQVTVSS”, the “polyreactivity (PSR sort gate)” value is on record as “low polyreactivity”.

As to “QDQLVESGGGLVQAGGSLRLTCAASGITFYRYAMGWYRQAPGKERELVAAITSGGRTNYADSVKGRFTISRDNAKNTVYLQMNSMKPEDTAVYYCGARLVRESEPLGYWGQGTQVTVSS”, the “polyreactivity (PSR sort gate)” value is on record as “high polyreactivity”.

With “HDQLVESGGGLVQAGGSLRLSCAASGFTFYRNAMGWYRQAPGQERELVAAITRGGSTTYADSVKGRFTISRANAKNTVYLQMISLKPDDTAVYYSAKVARADVPGYYKYYYWGQGTQVTVSS”, the “polyreactivity (PSR sort gate)” value was “high polyreactivity”.

In the case of “QVQLVESGGGLVQAGGSLRLSCAASGFNFSPYAMGWYRQAPGKERELVAAISSSGGSTYYADSVKGRFTISRDNAKNTVYLQMNSLKPEDTAVYYCNAAGGYRTSPSDYWGQGTQVTVSS”, the “polyreactivity (PSR sort gate)” value was “high polyreactivity”.

For “QVQLVESGGGLVQAGGSLRLSCAASGLTFTYYAMGWYRQSPGKASEFVAAISSSGSDTYYADSVKGRFTISRDNAKNTVYLQMTSQKPEDTAVYYCAAVLTGLSPDFEYEYWGQGTQVTVSS”, the “polyreactivity (PSR sort gate)” value is reported as “low polyreactivity”.

Regarding “QVQLVESGGGLVQAGGSLRLSCAASGRILGAYAMGWYRQAPGKERELVASISSGGRTYYADSVKGRFTISRDNAKNTVYLQMNSLKPEDTAVYYCNRDRNSGFYRRYGYWGQGTQVTVSS”, the “polyreactivity (PSR sort gate)” value is “high polyreactivity”.

As for “QVQLVESGGGLVQAGGSLRLSCAASGSIFYPYAMGWYRQAPGKEREFVAAITRSGGSTSYADSVKGRFTISRDNAKNTVYLHMNSLKPEDTAVYYCAAGYWYPDYDGFDYWGQGTQVTVSS”, the “polyreactivity (PSR sort gate)” value is reported as “low polyreactivity”.

As to “QVQLVESGGGLVQAGGSLRLSCAASGFIIYSYAMGWYRQAPGKERELVAVISSRGGTTYYADSVKGRFTISRDNAKNTVYLQMNSLKPEDTAVYYCARDDYGTLVKLYVRCFNYWGQGTQVTVSS”, the “polyreactivity (PSR sort gate)” value is “low polyreactivity”.

As to “QVQLVESGGGLVQAGGSLRLSCAASGRIFSYNTMGWYRQAPGKERELVAAISWSGGSTSYADSVKGRFTISRDNAKNTVYLQMNSLKPEDTAVYYCATGSKRNPFYRGNYWGQGTQVTVSS”, the “polyreactivity (PSR sort gate)” value is “low polyreactivity”.

For the sequence “QVQLVESGGGLVQAGGSLRLSCAASGFTFDQYGMGWYRQAPGKERVLVAGISWGGGTTYYADSVKGRFTISRDNAKNTVYLQMNSLKPEDTAVYYCAAVRPGYPYYGSDYWGQGTQVTVSS”, the “polyreactivity (PSR sort gate)” value is given as “low polyreactivity”.

Regarding “QVQLQESGGGLVQAGGSLLSCAASGTISYYREMGWYRQAPGKERELVAGIGVGTITYYADSVKGRFTISRDNAKNTVYLHMNSLKPEDTAVYYCAAHIDGNDSHAYWGQGTQVTVSS”, the “polyreactivity (PSR sort gate)” value is “low polyreactivity”.

On to “QVQLVESGGGLVQAGGSLRLTCAASGRIFQRYAMGWYRQAPGKERELVAGITSSGGSTYYADSVKGRFTISRDNAKNTVYLQMNSLKPEDTAVYYCNAGGELRYYGYRAGGTTRSYDYWGQGTQVTVSS”, for which the “polyreactivity (PSR sort gate)” value was “low polyreactivity”.

Take “QVHLVVSGGGLVQAGRSLRLICAASGSTFKAYAMGWYRQAPGKERELVAAITRRGTSTYYADSVKGRFTISRDNAKKTVYLQMNSLKPEDTADYYSNAKYVSDRSSAVSFDYWGQGTQVTVSS”: the “polyreactivity (PSR sort gate)” value is “low polyreactivity”.

On to “QVQLVESGGGLVQAGGSLRLSCAASGSTFTSNVMGWYRQAPGKERELVAAISQSGGRTYYADSVKGRFTISRDNAKNTVYLQMNSLKPEDTAVYYCAASYVHYHMDYWGQGTQVTVSS”, for which the “polyreactivity (PSR sort gate)” value is reported as “high polyreactivity”.

In the case of “QDQLVESGGGTVQAGGSLRISCAASGSILRSNAMGWYRQAPAKERELVAAITQSGGSTFYADSVKGRFTITRDNAKNTVYLQMNSLKPEDTAVYYWGQGTQVTVSS”, the “polyreactivity (PSR sort gate)” value was “low polyreactivity”.

“QVQLVESGGGLVQAGGSLRLSCAASGRTFLIYAMGWSRPAPGKERELVAAINFSGGNTYNADSVKGRFTISRDNAKHTVYLQMNSLKPEDTAVYYCAAGVYSFRYDYWGQGTQVTVSS”: the “polyreactivity (PSR sort gate)” value is on record as “low polyreactivity”.

In the case of “QVQLVESGGGLVQAGGSLRLSCAASGSIFKYNDMGWYRQAPGKERELVAAISWRGGRTYYADSVKGRFTISRDNAKNTVYLQMNSLKPEDTAVYYCNVVLDNRRGTYSYYYWGQGTQVTVSS”, the “polyreactivity (PSR sort gate)” value is reported as “high polyreactivity”.

In the case of “QVQLVESGGGIVQAGGSLRLSCAASGRIFRINGMGWYRQAPGKEREFVAAITSGGGTYYADSVKGRFTISRDNAKNTVYLQMNSLKAEDTAVFYCAVRRRYGDDYWGHGTQVTVSS”, the “polyreactivity (PSR sort gate)” value is recorded as “high polyreactivity”.

Regarding “QVQLVESGGGLVQAGGSLRLSCAASGLTFQSYAMGRYRQAPVKERELVATISNGSSTYYADSVKGRFTFSRDNAKNTVYLQMNSLKPEDTAVYFCAKDYYYSRNPLYGHDYWGHGTQVTVSS”, the “polyreactivity (PSR sort gate)” value is “low polyreactivity”.

As for “QVQLVESGGGLVQAGGSLRLSCAASGLIFSWNAMGWYRQAPGKERELVASISYSGGRTYYADSVKGRFTISRDNAKNTVYLQMNSLKPEDTAVYYCAADTNATTDPEMDYWGQGTQVTVSS”, the “polyreactivity (PSR sort gate)” value is reported as “low polyreactivity”.
